In PMC8047445:

Assays:
[1] = molecular target: cHSP27, isolated alpha-crystallin domain (ACD) of HSP27, oxidized disulfide-linked dimer (human) (UniProt P04792); assay: NMR titration; same HSQC titration, 25 C; 2D lineshape analysis with TITAN, fast- and slow-exchange residues fitted globally
[2] = molecular target: cHSP27, isolated alpha-crystallin domain (ACD) of HSP27, oxidized disulfide-linked dimer (human) (UniProt P04792); assay: NMR 15N CPMG relaxation dispersion; 2H,15N-cHSP27 (oxidized dimer) 1.5 mM with 80 uM WT peptide or 200 uM P182L peptide, 25 C, 500 and 600 MHz; naive two-state fit
[3] = molecular target: cHSP27, isolated alpha-crystallin domain (ACD) of HSP27, oxidized disulfide-linked dimer (human) (UniProt P04792); assay: NMR titration; 2D 1H-15N HSQC of 15N-cHSP27 (oxidized dimer) with unlabeled peptide, 25 C, 30 mM sodium phosphate, 2 mM EDTA, pH 7; global fit of CSPs of fast-exchange resonances to a two-state model (equation 2)
[4] = molecular target: cHSP27 (isolated alpha-crystallin domain of HSP27) (human) (UniProt P04792); assay: NMR titration; earlier TITAN lineshape fit of the HSQC titration, as told in the first response to reviewers
[5] = molecular target: cHSP27 (isolated alpha-crystallin domain of HSP27) (human) (UniProt P04792); assay: 15N CPMG relaxation dispersion NMR; earlier two-state fit of the CPMG RD data, as told in the first response to reviewers; koff = kex(1-pB), kon = kex pB/[L]free
[6] = molecular target: cHSP27 (isolated alpha-crystallin domain of HSP27) (human) (UniProt P04792); assay: 15N CPMG relaxation dispersion NMR; same data as a2; pB fixed at the value expected from the titration Kd (4.9% WT, 7.2% P182L) and delta R2 allowed to be non-zero
[7] = molecular target: cHSP27 (isolated alpha-crystallin domain of HSP27) (human) (UniProt P04792); assay: 15N CPMG relaxation dispersion NMR; 2H,15N-cHSP27 1.5 mM with 80 µM WT or 200 µM P182L peptide, 25 °C, 11.7 and 14.1 T; naive two-state fit (delta R2 = 0), kon and koff from pB and kex; apparent
[8] = molecular target: cHSP27 (isolated alpha-crystallin domain of HSP27) (human) (UniProt P04792); assay: NMR titration; 2D 1H-15N HSQC titration of 15N-cHSP27 (oxidised, disulfide-linked dimer) with unlabelled peptide, 25 °C, 30 mM sodium phosphate, 2 mM EDTA, pH 7; two-state 2D lineshape fit with TITAN on fast- and slow-exchange residues; apparent

Row | Kd [1] [µM] | Kd [2] [µM] | koff [2] [s⁻¹] | pB (percent of cHSP27 bound, by CPMG RD) [2] [%] | Kd [3] [µM] | koff [4] [s⁻¹] | koff [5] [s⁻¹] | kon [5] [M⁻¹ s⁻¹] | koff [6] [s⁻¹] | kon [6] [M⁻¹ s⁻¹] | kon [7] [M⁻¹ s⁻¹] | koff [8] [s⁻¹] | kon [8] [M⁻¹ s⁻¹] | Substance
1 | 132 | 1760 | 515 | 2.4 | 124 |  |  |  |  |  |  |  |  | WT peptide comprising the IxI/V (IPV) motif of the HSP27 C-terminal region
2 |  |  |  |  |  | 774 | 840 | 83000 | 547 | 500000 | 73000 | 771 | 600000 | P182L peptide (C-terminal IxI/V peptide of HSP27 with the CMT mutation P182L)
3 | 1280 | 8370 | 610 | 2 | 1030 |  |  |  |  |  |  |  |  | P182L peptide comprising the mutated IxI/V (ILV) motif of the HSP27 C-terminal region
4 |  |  |  |  |  |  | 759 | 300000 | 346 | 2.8e+06 | 290000 | 207 | 1.6e+06 | WT peptide (C-terminal IxI/V peptide of HSP27)
